Source: the nanobody polyreactivity screen of Harvey et al. (2022)

Assay: yeast display, Sf9 membrane polyspecificity reagent, FACS + sequencing; frameworks hold sequencing errors
How it was run: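 A synthetic nanobody library was expressed on Saccharomyces cerevisiae BJ5465 by galactose induction for 36–48 hours. The library was stained for 1 hour at 4 °C with 10% biotinylated, detergent-solubilized Sf9 membrane reagent and enriched with streptavidin microbeads before FACS. Low and high (top ~1%) gates were set on anti-HA fluorescence for expression and streptavidin fluorescence for reagent binding, and each polyreactivity label reflects the gate of origin.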

Row | Sequence | polyreactivity (PSR sort gate)
1 | HVQLVESGGGLVQAGGSLRLSCAASGSTFSRYAMGWYRQAPGKERELVAAISSSGGSTYYADSVKGRFTISRDNAKNTVYLQMNSLKPEDTAVYYCAARQYFFSSWRFDYWGQGTQVTVSS | high polyreactivity
2 | HVQLVESGGGLVQAGGSLRLSCAASGSTLWYNAMGWNRQAPGKERELVAVITWTGGSTYYADSVKGRFTISRDNAKNTVYLQMNSLKPEDTAVYYCAVRWYFGNRYKYYYWGQGTQVTVSS | high polyreactivity
3 | HVQLVESGGGLVQAGGSLRLSCAAWSIFYLNAMGWYRQAPGKERELVAAISSAGSTYYADSVKGRFTISRDNAKNTVYLQMNSLKPEDTAVYYCAAYWYDSPGVTEIWYDYWGQGTQVTVSS | low polyreactivity
4 | HVQLVESGGGLVQAGGSLRVSCAASGSTFTRNAMGWYRQAPGKERELVAAITLRGGRTYYADSVKGRFTISRDNAKNTVYLQMNSLKPEDTAVYYCAAKPYTAYSYYEQRGRKYDYWGQGTQVTVSS | low polyreactivity
5 | HVQLVESGGGLVQAGVSLRLSCAASGRLLEGYAMGWYRQAPGKERELVAAISFSTTTTYYADSVKGRFTISRDNAKNTVYLQMNSLKPEDTAVYYCAADSQQSDYDYWGQGTQVTVSS | high polyreactivity
6 | HVQLVESGGGVVQAGGSLRLSCAASGIIFYYYTMGWYRHAPGKQRELVAAISTSGGRTYYADSVKGRFTISRDTAKNTVYLQMNSLKPEDTAVYYCNARSRHTTLDYWGQGTQVTVSS | high polyreactivity
7 | HVQRVDSGAGLVQPRCSLRISCAASGNTFKQYAMGWYRQAPGKDRELVAAIRRSGSTYYADSVKGRFTISRDNAKYTVYLEMNSLKPEDPAVYYCNARIYRLYSTYSWTRYDYWGQGTQVTVSS | high polyreactivity
8 | HVQRVESGGGLVQAGGSLRLSCAASGLIFVRYAMGWYRQAPGKERELVAAITTGGRTYYADSVKGRFTISRDNAKNTVYLQMNSLKPEDTAVYDCAASRSTYRASRPGTTFNYWGQGTQVTVSS | high polyreactivity
9 | HVQVVESGGGLVQAGGSLRLSCAASGSTFPANAMGWYRQAPGKERELVAAISSSGGRTYYADSVKGRFTISRDNAQKTVYLQMNSLKPEDTAVYYCAAYGGGGYKYDYWGQGTQVSVSS | low polyreactivity
10 | HVRLQESVGGLVQAGGSLRQSCAASGAISPYYDMGWYRLAPGKEREFVASIAHGGTTYYADSVKGRFTTSRDNAKNTVYLQMNSLKPEDTAVYYCAVAYDVWHSHIYRGQGTQVTVSS | high polyreactivity
11 | IIQAGGSLRLSCAASGRTLSGYAMGWYRQAPGKERELIADITSGGSTYYADSVKGRFTISRDNAKNTVYLQMNSLKPEDTAVYYCAAERQIRSFWSSRTYEFGYWGQGTQVTVSS | low polyreactivity
12 | KDQLVESGGGLVQAGGSLRLSCAASGLTFGGNAMGWYRQAPGKERELVAGISSSGNTNDADSVKGRFTISRDNAKNTVYLQLNSLKPEDTAVYYCAADENITYPVYDLYYWGQGTQVTVSS | low polyreactivity
13 | KDQLVESGVGLVQAGCSLRLSCAASGRTLRRNAMGWYRQAPRKERELVAAISTGGGSTYYADSVKGRFTISRDNAKNTVYLQMNSLKPVDTAVYYCAAVYSQSTKRYELYYWGQGTQVTVSS | high polyreactivity
14 | KFQLVESGGGLVQAGGRLRLSCAASGSTFWDYAMGWYRQATGKERQLVAVITSSGGGTYYADSVKGRFTISRDNSKNTVYLLMNSLKPEDTAVYYCAKKRPYSNGGYYWGQGSQVTVSS | high polyreactivity
15 | KGHLEESGGGLVQAGGRLRLSCPASGNTFGDYAMGRYRQAPGKERELVAAISRSGGSTSYADSVKGRFTISRDNAKNTFYLQMNSLKPVDTAVYYCAAYWQRFGYDYWGQGTQVTVSS | low polyreactivity
16 | KGQHVESGGGLVQAGGRLRLSCAASGSIFRYNAMGWDRQAPGKEREFVAAISWSGGRTFYADSVKGRFTISRDNAKNTVYLQMNSLKPEDTAVYYCAARSSRTTRQGYDYWGHGTQVTVSS | high polyreactivity
17 | KSGGGLVQAGGSLRLSCAASGRIYVEYAMAWYKQAPGKERELVASISWSGDSTYYAESVKGRFTISRDNAKNTVYSQKKSLKPEATAVYYCNADGQVGYAVSYDYWGQGTQVTVSS | low polyreactivity
18 | KVKLVESGGGLVQAGGSLRLSCAASGITSWYYAMGWYRQAPGKERELVAAITSDGSTYYADSVKGRFTISRDNAKNTVYLQMNSLKPEVTAVYYCAAERDYWIPDSYLVGMDFWGLGTQVTVSS | low polyreactivity
19 | KVQLQESGGGLVQAGGSLRLSCAASCTISQEDWMGWYRQAPGKEREFVAAIGLGSNTNYADSLKGRFPISRDNAKNTVYLQMNSLKPEDTAVYYCAVSVWQYSDHVYRGQGTQVTVSS | low polyreactivity
20 | KVQLVDSGGGLVQAGGSLRLSCAASGSTSKCYAMGWYRPEPGKERELVAAITKTGGRTYYADSVKGRFTISRDNAKNTVYLQMNSLKPEDTADYYCAVEYLRGFIVIYDYWGQGTQVTVTS | high polyreactivity
21 | KVQLVESAVGLVQAGGSLRLSCAASGPTFWRNAMGWYRQAPGKERELVAAISRGGSTNYADSVKGRFTISRDNAKNTVYLLMNSLKPEDTAVYYCAARYYYRYNYWGQGTQVTVSS | high polyreactivity
22 | KVQLVESGGCLVQAGGSLSLSCAASGSIFAVYAMGWYRQAPGKERELVAAITLSGGSTYAYSVKGRFTISRDNAKNTFYLQMKSLKPEDTAVYYCNAVSANYDYVDYEYWGQGTQVNVSS | low polyreactivity
23 | KVQLVESGGGLVQAGGSIRLSFAASGLIFLQYCMGWYRQAPGKERELVAAITTRGGRTYYADSVKGRFTISRDNPKNTVYLQMNSLKPEDTAVYYCAADSEQDNLRYYRWVWYYYWGQGPQVTVSS | low polyreactivity
24 | KVQLVESGGGLVQAGGSLRLSCAASGGTFSYNAMGWYRQAPGKERELVAAISWSGTRTYYADSVKGRFTISRDNAKNTVYLQMNSLKPEDTAVYYCNKPPPNRGRYDYWGQCTQVTVSS | low polyreactivity
25 | KVQLVESGGGLVQAGGSLRLSCAASGLNFGRYAMGWYRQAPGKERELVAAISSSGVRTYYADSVKGRFTISRHNAKNTVYLQMNSLKPADTAVYYCAAAYWSSREDTVIKRYYWGQGTQVTVSS | high polyreactivity
26 | KVQLVESGGGLVQAGGSLRLSCAASGNTFYVYTMGWYRQAPGKERDLVAAISSTGDRTYYADSVKGRFTISRDNAKNTVYLQMNSLKPEDTSVYYCADVRYITKEFYWGLGTQVTVSS | high polyreactivity
27 | KVQLVESGGGLVQAGGSLRLSCAASGRIFKYYAMGWYRQAPGKERELVAAISARGGSTYYADSVKGRFTISRDNAKNTVYLQMNSLKPEDTAVYYCAAPYLTTQYERMYYWGQGTQVTVSS | high polyreactivity
28 | KVQLVESGGGLVQAGGSLRLSCAASGSIISPNAMGWYRQAPGKERELVAGITQSGGSTYYADSVKGRFTISRDNAKNTVYLQMNSLKPEDTAVYYCSVDFILGWYSYYYWGQGTQVTVSS | high polyreactivity
29 | KVQLVESGGGLVQAGGSLRLSCAASGSTFSTNAMGRYRQAPGKERELVAAISRTGGSTYYADSVKGRFTISRDNAKNNVYLPMNILKPEDTAVYYSARYSYRGTNVRFDYWGQGTQVTLSS | high polyreactivity
30 | KVQLVESGGGLVQAGGSLRLSCAASGSTFSYYAMGWYRQGPGKERELVAAITRSGYSTYYADSVKGRFTISLDNAKNTVYLQMNSLKPEDTAVYYCNTVSRYKYPKPTYYQSSFYYWGQGTQVTVSS | high polyreactivity
